{"source": "patent US20180016342A1", "about": "(published 2018)", "molecules": {"B1": {"name": "IL6R04 (VHH)", "VHH": "EVQLVESGGGLVQAGGSLRLSCAASGFTFDDYDIGWFRQAPGKEREGVSGISSSDGNTYYADSVKGRFTISSDNAKNTVYLQMNSLKPEDTAVYYCAAEPPDSSWYLDGSPEFFKYWGQGTQVTVSS"}, "B2": {"name": "IL6R71 (VHH)", "VHH": "B1 VHH with A14P, E44G, K87R, Q122L"}, "B3": {"name": "IL6R75 (VHH)", "VHH": "B1 VHH with A14P, D30S, E44G, S72R, V79L, K87R, Q122L"}, "B4": {"name": "IL6R72 (VHH)", "VHH": "B1 VHH with A14P, D30S, E44G, K87R, Q122L"}, "B5": {"name": "IL6R73 (VHH)", "VHH": "B1 VHH with A14P, E44G, S72R, K87R, Q122L"}, "B6": {"name": "IL6R74 (VHH)", "VHH": "B1 VHH with A14P, E44G, V79L, K87R, Q122L"}, "B7": {"name": "IL6R03 (VHH)", "VHH": "EVQLVESGGGLVQAGGSLRLSCAASGSIFKVNAMGWYRQAPGKQRELVAGIISGGSTNYADSVKGRLTISRDNAKNTVYLQMNSLKPEDTAVYYCSFVTTNSDYDLGRDYWGQGTQVTVSS"}, "B8": {"name": "IL6R64 (VHH)", "VHH": "B7 VHH with A14P, Q44G, K86R, S96A, Q116L"}, "B9": {"name": "IL6R61 (VHH)", "VHH": "B7 VHH with A14P, Q44G, K86R, Q116L"}, "B10": {"name": "IL6R62 (VHH)", "VHH": "B7 VHH with A14P, Q44G, L67F, K86R, Q116L"}, "B11": {"name": "IL6R65 (VHH)", "VHH": "B7 VHH with A14P, Q44G, L67F, V78L, K86R, S96A, Q116L"}, "B12": {"name": "IL6R63 (VHH)", "VHH": "B7 VHH with A14P, Q44G, V78L, K86R, Q116L"}, "B13": {"name": "IL6R84 (VHH)", "VHH": "EVQLVESGGGLVQPGGSLRLSCAASGFTFDDYGMSWVRQAPGKGLEWVSAISWNGNNTYYTESMKGRFTISRDNAKNTLYLQMNSLRPEDTAVYYCVKGSTAIVGVPPTYPDEYDYWGQGTLVTVSS"}, "B14": {"name": "IL6R83 (VHH)", "VHH": "B13 VHH with K43R, G44A, L45T"}, "B15": {"name": "IL6R82 (VHH)", "VHH": "B13 VHH with L79V"}, "B16": {"name": "IL6R13 (VHH)", "VHH": "B13 VHH with K43R, G44A, L45T, L79V, R87K, L122Q"}, "B17": {"name": "IL6R88 (VHH)", "VHH": "B13 VHH with L45T"}, "B18": {"name": "IL6R81 (VHH)", "VHH": "B13 VHH with K43R, G44A, L45T, L79V"}}, "key": {"[1]": {"target": "membrane-bound IL6R on human cells (U266, XG-1, TF-1) (human) (UniProt P08887)", "assay": "cell-based or functional assay"}, "[2]": {"target": "T1, human soluble IL6-R (human, UniProt P08887 20-358)", "T1 chain": "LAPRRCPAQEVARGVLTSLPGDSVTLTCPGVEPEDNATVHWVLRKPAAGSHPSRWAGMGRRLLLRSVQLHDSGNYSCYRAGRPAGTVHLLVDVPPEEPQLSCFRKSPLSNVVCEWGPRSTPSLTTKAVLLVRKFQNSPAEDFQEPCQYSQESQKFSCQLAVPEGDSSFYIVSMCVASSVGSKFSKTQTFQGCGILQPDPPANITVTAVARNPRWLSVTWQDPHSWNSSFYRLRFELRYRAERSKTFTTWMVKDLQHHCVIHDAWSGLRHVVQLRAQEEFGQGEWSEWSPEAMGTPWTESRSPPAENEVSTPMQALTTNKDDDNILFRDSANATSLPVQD", "assay": "Alphascreen inhibition of IL6/IL6-R interaction"}, "[3]": {"target": "T1, human soluble IL6-R", "assay": "Alphascreen inhibition of IL6/IL6-R interaction"}, "[4]": {"target": "T2, soluble IL6-R in cynomolgus plasma (cynomolgus monkey, UniProt A0A2K5WN54 60-386)", "T2 chain": "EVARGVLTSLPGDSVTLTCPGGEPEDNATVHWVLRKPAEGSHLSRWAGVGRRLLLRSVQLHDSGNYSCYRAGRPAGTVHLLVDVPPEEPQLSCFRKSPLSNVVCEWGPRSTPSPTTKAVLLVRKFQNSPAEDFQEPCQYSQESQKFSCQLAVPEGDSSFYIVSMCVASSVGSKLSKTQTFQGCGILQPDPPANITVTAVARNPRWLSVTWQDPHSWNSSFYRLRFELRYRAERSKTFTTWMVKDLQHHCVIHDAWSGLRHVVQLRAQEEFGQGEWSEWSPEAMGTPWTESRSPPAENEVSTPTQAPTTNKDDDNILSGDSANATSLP", "assay": "ELISA inhibition of IL-6 binding to plasma sIL6R; cyno plasma, 50 ng/mL IL-6"}, "[5]": {"target": "T1, human soluble IL6-R", "assay": "Alphascreen inhibition of IL6/IL6-R interaction"}, "[6]": {"target": "T1, human soluble IL6-R", "assay": "Alphascreen inhibition of IL6/IL6-R interaction; printed LOGEC50 -9.833"}, "[7]": {"target": "T1, human soluble IL6-R", "assay": "Alphascreen inhibition of IL6/IL6-R interaction"}}, "note": "Where a chain is given by its changes, count along the chain named.", "data": [{"molecule": "MAb BN-12 (antibody)", "values": [{"measurement": "IC50 (nM), XG-1 cell based assay", "setting": "[1]", "result": 0.272, "unit": "nM"}]}, {"molecule": "MAb BR-6 (antibody)", "values": [{"measurement": "IC50 (+1% HSA), TF-1 proliferation assay, 200 pg/ml IL-6", "setting": "[1]", "result": 0.088}, {"measurement": "IC50 (nM), XG-1 cell based assay", "setting": "[1]", "result": 0.064, "unit": "nM"}, {"measurement": "IC50 (w/o HSA), TF-1 proliferation assay, 200 pg/ml IL-6", "setting": "[1]", "result": 0.042}]}, {"molecule": "B1", "values": [{"measurement": "EC50", "setting": "[2]", "result": 0.18, "unit": "nM"}, {"measurement": "EC50", "setting": "[3]", "result": 0.0568, "unit": "nM"}, {"measurement": "EC50", "setting": "[4]", "result": 36.9, "unit": "nM"}]}, {"molecule": "B2", "values": [{"measurement": "EC50", "setting": "[2]", "result": 0.153, "unit": "nM"}]}, {"molecule": "B3", "values": [{"measurement": "EC50", "setting": "[3]", "result": 0.0432, "unit": "nM"}]}, {"molecule": "B4", "values": [{"measurement": "EC50", "setting": "[2]", "result": 0.16, "unit": "nM"}]}, {"molecule": "B5", "values": [{"measurement": "EC50", "setting": "[2]", "result": 0.0916, "unit": "nM"}]}, {"molecule": "B6", "values": [{"measurement": "EC50", "setting": "[2]", "result": 0.133, "unit": "nM"}]}, {"molecule": "B7", "values": [{"measurement": "EC50", "setting": "[5]", "result": 0.187, "unit": "nM"}, {"measurement": "EC50", "setting": "[3]", "result": 0.105, "unit": "nM"}, {"measurement": "EC50", "setting": "[4]", "result": 5.88, "unit": "nM"}]}, {"molecule": "B8", "values": [{"measurement": "EC50", "setting": "[5]", "result": 0.108, "unit": "nM"}]}, {"molecule": "B9", "values": [{"measurement": "EC50", "setting": "[5]", "result": 0.336, "unit": "nM"}]}, {"molecule": "B10", "values": [{"measurement": "EC50", "setting": "[5]", "result": 0.28, "unit": "nM"}]}, {"molecule": "B11", "values": [{"measurement": "EC50", "setting": "[6]", "result": 0.105, "unit": "nM"}, {"measurement": "EC50", "setting": "[4]", "result": 4.91, "unit": "nM"}]}, {"molecule": "B12", "values": [{"measurement": "EC50", "setting": "[5]", "result": 0.65, "unit": "nM"}]}, {"molecule": "B13", "values": [{"measurement": "EC50", "setting": "[7]", "result": 0.465, "unit": "nM"}]}, {"molecule": "B14", "values": [{"measurement": "EC50", "setting": "[7]", "result": 0.0779, "unit": "nM"}]}, {"molecule": "B15", "values": [{"measurement": "EC50", "setting": "[7]", "result": 0.476, "unit": "nM"}]}, {"molecule": "B16", "values": [{"measurement": "EC50", "setting": "[7]", "result": 0.0644, "unit": "nM"}, {"measurement": "EC50", "setting": "[3]", "result": 0.0505, "unit": "nM"}, {"measurement": "EC50", "setting": "[4]", "result": 11.7, "unit": "nM"}]}, {"molecule": "B17", "values": [{"measurement": "EC50", "setting": "[3]", "result": 0.0727, "unit": "nM"}, {"measurement": "EC50", "setting": "[4]", "result": 23.3, "unit": "nM"}]}, {"molecule": "B18", "values": [{"measurement": "EC50", "setting": "[7]", "result": 0.0747, "unit": "nM"}]}]}
